Data published in patent US20260116991A1 (HAINAN SIMCERE ZAIMING PHARMACEUTICAL, published 2026).

How the values were obtained:
[1] = target: T1, human GPC3 on CHO-K1-human GPC3 cells (CHOK1-hGPC3.2B5) (human, UniProt P51654 25-554); assay: FACS, CHOK1-hGPC3.2B5 cells;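 also: flow cytometry of humanized antibodies binding to the cells over one hour in the cold, read as cell mean fluorescence intensity, with EC50 obtained by curve fitting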
T1 construct: whole, on cells

[2] = target: biotinylated labeled human GPC3 protein (produced in-house) (human, UniProt P51654 25-559, limits assumed, biotinylated (Dojindo, Cat. No. LK03); sites not stated); assay: ELISA, biotinylated human GPC3 protein

B1: hAb006LH2L1 (antibody, human IgG1, V domains shown)
VH: EVQLVQSGAEVKKPGSSVKVSCKASGYTFTDYEIHWVRQAPGQGLEWMGAIDPKTGNTAYNQKFMGRVTITADKSTSTAYMELSSLRSEDTAVYYCTRYFSFAYWGQGTLVTVSS
VL: DIVMTQTPLSLPVTPGEPASISCRSSQTFVHSNGNTYLQWYLQKPGQSPQLLIYKVSNRFSGVPDRFSGSGSGTDFTLKISRVEAEDVGVYYCFQGSHVPYTFGQGTKLEIK
notes: Humanized F3.38.7; VH H2 + VL L1; expressed as human IgG1
EC50 [1]: 1.02 nM
Max MFI [1]: 4880 MFI
OD450 at 0.0008 nM [2]: 0.192 OD450
OD450 at 0.004 nM [2]: 0.629 OD450
OD450 at 0.02 nM [2]: 1 OD450
OD450 at 0.11 nM [2]: 1.83 OD450
OD450 at 0.53 nM [2]: 2.36 OD450
OD450 at 2.67 nM [2]: 2.4 OD450
OD450 at 13.33 nM [2]: 2.29 OD450
OD450 at 66.66 nM [2]: 2.28 OD450

B2: hAb007LH1L1c (antibody, human IgG1, V domains shown)
VH: EVQLVQSGAEVKKPGSSVKVSCKASGYTFSDYEMHWVRQAPGQGLEWMGTIDPETGNTAYNQKFKGRVTITADKSTSTAYMELSSLRSEDTAVYYCTRPYSLTYWGQGTLVTVSS
VL: DIVMTQTPLSLPVTPGEPASISCRSSQSFVHSNADTYLQWYLQKPGQSPQLLIYKVSNRFSGVPDRFSGSGSGTDFTLKISRVEAEDVGVYYCFQGSHVPYTFGQGTKLEIK
notes: Humanized F3.81.19; VH H1 + VL L1c; expressed as human IgG1
EC50 [1]: 4.61 nM
Max MFI [1]: 18200 MFI
OD450 at 0.0004 nM [2]: 0.052 OD450
OD450 at 0.002 nM [2]: 0.064 OD450
OD450 at 0.011 nM [2]: 0.098 OD450
OD450 at 0.056 nM [2]: 0.25 OD450
OD450 at 0.28 nM [2]: 0.718 OD450
OD450 at 1.39 nM [2]: 1.09 OD450
OD450 at 6.94 nM [2]: 1.45 OD450
OD450 at 34.72 nM [2]: 1.29 OD450

B3: hAb006LH3L1d (antibody, human IgG1, V domains shown)
VH: EVQLVQSGAEVKKPGSSVKVSCKASGYTFTDYEIHWVRQAPGQGLEWMGAIDPKTGNTAYNQKFMGRVTLTADKSTSTAYMELSSLRSEDTAVYYCTRYFSFAYWGQGTLVTVSS
VL: DIVMTQTPLSLPVTPGEPASISCRSSQTFVHSNSNTYLQWYLQKPGQSPQLLIYKVSNRFSGVPDRFSGSGSGTDFTLKISRVEAEDVGVYYCFQGSHVPYTFGQGTKLEIK
notes: Humanized F3.38.7; VH H3 + VL L1d; expressed as human IgG1
EC50 [1]: 1.98 nM
Max MFI [1]: 17600 MFI
OD450 at 0.0004 nM [2]: 0.058 OD450
OD450 at 0.002 nM [2]: 0.096 OD450
OD450 at 0.011 nM [2]: 0.228 OD450
OD450 at 0.056 nM [2]: 0.59 OD450
OD450 at 0.28 nM [2]: 1.11 OD450
OD450 at 1.39 nM [2]: 1.61 OD450
OD450 at 6.94 nM [2]: 1.33 OD450
OD450 at 34.72 nM [2]: 1.45 OD450

B4: hAb007LH1L1b (antibody, human IgG1, V domains shown)
VH: EVQLVQSGAEVKKPGSSVKVSCKASGYTFSDYEMHWVRQAPGQGLEWMGTIDPETGNTAYNQKFKGRVTITADKSTSTAYMELSSLRSEDTAVYYCTRPYSLTYWGQGTLVTVSS
VL: DIVMTQTPLSLPVTPGEPASISCRSSQSFVHSNRDTYLQWYLQKPGQSPQLLIYKVSNRFSGVPDRFSGSGSGTDFTLKISRVEAEDVGVYYCFQGSHVPYTFGQGTKLEIK
notes: Humanized F3.81.19; VH H1 + VL L1b; expressed as human IgG1
EC50 [1]: 6.47 nM
Max MFI [1]: 6070 MFI
OD450 at 0.0008 nM [2]: 0.099 OD450
OD450 at 0.004 nM [2]: 0.137 OD450
OD450 at 0.02 nM [2]: 0.341 OD450
OD450 at 0.11 nM [2]: 1.07 OD450
OD450 at 0.53 nM [2]: 1.98 OD450
OD450 at 2.67 nM [2]: 2.34 OD450
OD450 at 13.33 nM [2]: 2.38 OD450
OD450 at 66.66 nM [2]: 2.46 OD450

B5: hAb007LH1L1 (antibody, human IgG1, V domains shown)
VH: EVQLVQSGAEVKKPGSSVKVSCKASGYTFSDYEMHWVRQAPGQGLEWMGTIDPETGNTAYNQKFKGRVTITADKSTSTAYMELSSLRSEDTAVYYCTRPYSLTYWGQGTLVTVSS
VL: DIVMTQTPLSLPVTPGEPASISCRSSQSFVHSNGDTYLQWYLQKPGQSPQLLIYKVSNRFSGVPDRFSGSGSGTDFTLKISRVEAEDVGVYYCFQGSHVPYTFGQGTKLEIK
notes: Humanized F3.81.19; VH H1 + VL L1; expressed as human IgG1
EC50 [1]: 2.02 nM
Max MFI [1]: 6440 MFI
OD450 at 0.0008 nM [2]: 0.109 OD450
OD450 at 0.004 nM [2]: 0.17 OD450
OD450 at 0.02 nM [2]: 0.496 OD450
OD450 at 0.11 nM [2]: 1.36 OD450
OD450 at 0.53 nM [2]: 2.14 OD450
OD450 at 2.67 nM [2]: 2.42 OD450
OD450 at 13.33 nM [2]: 2.38 OD450
OD450 at 66.66 nM [2]: 2.43 OD450

B6: hAb006LH3L1 (antibody, human IgG1, V domains shown)
VH: EVQLVQSGAEVKKPGSSVKVSCKASGYTFTDYEIHWVRQAPGQGLEWMGAIDPKTGNTAYNQKFMGRVTLTADKSTSTAYMELSSLRSEDTAVYYCTRYFSFAYWGQGTLVTVSS
VL: DIVMTQTPLSLPVTPGEPASISCRSSQTFVHSNGNTYLQWYLQKPGQSPQLLIYKVSNRFSGVPDRFSGSGSGTDFTLKISRVEAEDVGVYYCFQGSHVPYTFGQGTKLEIK
notes: Humanized F3.38.7; VH H3 + VL L1; expressed as human IgG1
EC50 [1]: 0.929 nM
Max MFI [1]: 4920 MFI
OD450 at 0.0008 nM [2]: 0.154 OD450
OD450 at 0.004 nM [2]: 0.287 OD450
OD450 at 0.02 nM [2]: 0.819 OD450
OD450 at 0.11 nM [2]: 1.65 OD450
OD450 at 0.53 nM [2]: 2.06 OD450
OD450 at 2.67 nM [2]: 2.2 OD450
OD450 at 13.33 nM [2]: 2.25 OD450
OD450 at 66.66 nM [2]: 2.33 OD450

B7: hAb006LH3L1c (antibody, human IgG1, V domains shown)
VH: EVQLVQSGAEVKKPGSSVKVSCKASGYTFTDYEIHWVRQAPGQGLEWMGAIDPKTGNTAYNQKFMGRVTLTADKSTSTAYMELSSLRSEDTAVYYCTRYFSFAYWGQGTLVTVSS
VL: DIVMTQTPLSLPVTPGEPASISCRSSQTFVHSNRNTYLQWYLQKPGQSPQLLIYKVSNRFSGVPDRFSGSGSGTDFTLKISRVEAEDVGVYYCFQGSHVPYTFGQGTKLEIK
notes: Humanized F3.38.7; VH H3 + VL L1c; expressed as human IgG1
EC50 [1]: 1.16 nM
Max MFI [1]: 18000 MFI
OD450 at 0.0004 nM [2]: 0.071 OD450
OD450 at 0.002 nM [2]: 0.102 OD450
OD450 at 0.011 nM [2]: 0.265 OD450
OD450 at 0.056 nM [2]: 0.756 OD450
OD450 at 0.28 nM [2]: 1.3 OD450
OD450 at 1.39 nM [2]: 1.46 OD450
OD450 at 6.94 nM [2]: 1.44 OD450
OD450 at 34.72 nM [2]: 1.36 OD450

B8: hAb006LH3L1e (antibody, human IgG1, V domains shown)
VH: EVQLVQSGAEVKKPGSSVKVSCKASGYTFTDYEIHWVRQAPGQGLEWMGAIDPKTGNTAYNQKFMGRVTLTADKSTSTAYMELSSLRSEDTAVYYCTRYFSFAYWGQGTLVTVSS
VL: DIVMTQTPLSLPVTPGEPASISCRSSQTFVHSNVNTYLQWYLQKPGQSPQLLIYKVSNRFSGVPDRFSGSGSGTDFTLKISRVEAEDVGVYYCFQGSHVPYTFGQGTKLEIK
notes: Humanized F3.38.7; VH H3 + VL L1e; expressed as human IgG1
EC50 [1]: 2.06 nM
Max MFI [1]: 15800 MFI
OD450 at 0.0004 nM [2]: 0.06 OD450
OD450 at 0.002 nM [2]: 0.085 OD450
OD450 at 0.011 nM [2]: 0.187 OD450
OD450 at 0.056 nM [2]: 0.592 OD450
OD450 at 0.28 nM [2]: 1.23 OD450
OD450 at 1.39 nM [2]: 1.36 OD450
OD450 at 6.94 nM [2]: 1.44 OD450
OD450 at 34.72 nM [2]: 1.32 OD450

B9: hAb006LH2L1b (antibody, human IgG1, V domains shown)
VH: EVQLVQSGAEVKKPGSSVKVSCKASGYTFTDYEIHWVRQAPGQGLEWMGAIDPKTGNTAYNQKFMGRVTITADKSTSTAYMELSSLRSEDTAVYYCTRYFSFAYWGQGTLVTVSS
VL: DIVMTQTPLSLPVTPGEPASISCRSSQTFVHSNANTYLQWYLQKPGQSPQLLIYKVSNRFSGVPDRFSGSGSGTDFTLKISRVEAEDVGVYYCFQGSHVPYTFGQGTKLEIK
notes: Humanized F3.38.7; VH H2 + VL L1b; expressed as human IgG1
EC50 [1]: 1.14 nM
Max MFI [1]: 4790 MFI
OD450 at 0.0008 nM [2]: 0.16 OD450
OD450 at 0.004 nM [2]: 0.316 OD450
OD450 at 0.02 nM [2]: 0.872 OD450
OD450 at 0.11 nM [2]: 1.91 OD450
OD450 at 0.53 nM [2]: 2.41 OD450
OD450 at 2.67 nM [2]: 2.55 OD450
OD450 at 13.33 nM [2]: 2.4 OD450
OD450 at 66.66 nM [2]: 2.37 OD450

B10: hAb007LH1L1d (antibody, human IgG1, V domains shown)
VH: EVQLVQSGAEVKKPGSSVKVSCKASGYTFSDYEMHWVRQAPGQGLEWMGTIDPETGNTAYNQKFKGRVTITADKSTSTAYMELSSLRSEDTAVYYCTRPYSLTYWGQGTLVTVSS
VL: DIVMTQTPLSLPVTPGEPASISCRSSQSFVHSNSDTYLQWYLQKPGQSPQLLIYKVSNRFSGVPDRFSGSGSGTDFTLKISRVEAEDVGVYYCFQGSHVPYTFGQGTKLEIK
notes: Humanized F3.81.19; VH H1 + VL L1d; expressed as human IgG1
EC50 [1]: 6.28 nM
Max MFI [1]: 18200 MFI
OD450 at 0.0004 nM [2]: 0.059 OD450
OD450 at 0.002 nM [2]: 0.057 OD450
OD450 at 0.011 nM [2]: 0.101 OD450
OD450 at 0.056 nM [2]: 0.16 OD450
OD450 at 0.28 nM [2]: 0.503 OD450
OD450 at 1.39 nM [2]: 1.1 OD450
OD450 at 6.94 nM [2]: 1.34 OD450
OD450 at 34.72 nM [2]: 1.31 OD450

B11: hAb006LH3L1b (antibody, human IgG1, V domains shown)
VH: EVQLVQSGAEVKKPGSSVKVSCKASGYTFTDYEIHWVRQAPGQGLEWMGAIDPKTGNTAYNQKFMGRVTLTADKSTSTAYMELSSLRSEDTAVYYCTRYFSFAYWGQGTLVTVSS
VL: DIVMTQTPLSLPVTPGEPASISCRSSQTFVHSNANTYLQWYLQKPGQSPQLLIYKVSNRFSGVPDRFSGSGSGTDFTLKISRVEAEDVGVYYCFQGSHVPYTFGQGTKLEIK
notes: Humanized F3.38.7; VH H3 + VL L1b; expressed as human IgG1
EC50 [1]: 0.97 nM
Max MFI [1]: 4670 MFI
OD450 at 0.0008 nM [2]: 0.155 OD450
OD450 at 0.004 nM [2]: 0.309 OD450
OD450 at 0.02 nM [2]: 0.878 OD450
OD450 at 0.11 nM [2]: 1.93 OD450
OD450 at 0.53 nM [2]: 2.36 OD450
OD450 at 2.67 nM [2]: 2.42 OD450
OD450 at 13.33 nM [2]: 2.36 OD450
OD450 at 66.66 nM [2]: 2.5 OD450
